Measured values reported in PMC3922351 (2007).
Each block holds one molecule with its values, some of them ahead of it.

Experiments:
[1] = biological target: FGFR1 (Homo sapiens) (UniProt P11362); assay: surface plasmon resonance; conditions: cited from earlier work
[2] = biological target: FGFR1 (Homo sapiens) (UniProt P11362); assay: surface plasmon resonance; conditions: cited from earlier work; remark: listed apart in the source
[3] = biological target: FGF2 (Homo sapiens) (UniProt P09038); assay: SPR; conditions: cited from earlier work
[4] = biological target: FGF2 (Homo sapiens) (UniProt P09038); assay: SPR; conditions: cited from earlier work; remark: listed apart in the source
[5] = biological target: low density lipoprotein receptor-related protein (LRP) (UniProt Q07954)
Sequence of low density lipoprotein receptor-related protein (LRP) (Q07954 20-4544): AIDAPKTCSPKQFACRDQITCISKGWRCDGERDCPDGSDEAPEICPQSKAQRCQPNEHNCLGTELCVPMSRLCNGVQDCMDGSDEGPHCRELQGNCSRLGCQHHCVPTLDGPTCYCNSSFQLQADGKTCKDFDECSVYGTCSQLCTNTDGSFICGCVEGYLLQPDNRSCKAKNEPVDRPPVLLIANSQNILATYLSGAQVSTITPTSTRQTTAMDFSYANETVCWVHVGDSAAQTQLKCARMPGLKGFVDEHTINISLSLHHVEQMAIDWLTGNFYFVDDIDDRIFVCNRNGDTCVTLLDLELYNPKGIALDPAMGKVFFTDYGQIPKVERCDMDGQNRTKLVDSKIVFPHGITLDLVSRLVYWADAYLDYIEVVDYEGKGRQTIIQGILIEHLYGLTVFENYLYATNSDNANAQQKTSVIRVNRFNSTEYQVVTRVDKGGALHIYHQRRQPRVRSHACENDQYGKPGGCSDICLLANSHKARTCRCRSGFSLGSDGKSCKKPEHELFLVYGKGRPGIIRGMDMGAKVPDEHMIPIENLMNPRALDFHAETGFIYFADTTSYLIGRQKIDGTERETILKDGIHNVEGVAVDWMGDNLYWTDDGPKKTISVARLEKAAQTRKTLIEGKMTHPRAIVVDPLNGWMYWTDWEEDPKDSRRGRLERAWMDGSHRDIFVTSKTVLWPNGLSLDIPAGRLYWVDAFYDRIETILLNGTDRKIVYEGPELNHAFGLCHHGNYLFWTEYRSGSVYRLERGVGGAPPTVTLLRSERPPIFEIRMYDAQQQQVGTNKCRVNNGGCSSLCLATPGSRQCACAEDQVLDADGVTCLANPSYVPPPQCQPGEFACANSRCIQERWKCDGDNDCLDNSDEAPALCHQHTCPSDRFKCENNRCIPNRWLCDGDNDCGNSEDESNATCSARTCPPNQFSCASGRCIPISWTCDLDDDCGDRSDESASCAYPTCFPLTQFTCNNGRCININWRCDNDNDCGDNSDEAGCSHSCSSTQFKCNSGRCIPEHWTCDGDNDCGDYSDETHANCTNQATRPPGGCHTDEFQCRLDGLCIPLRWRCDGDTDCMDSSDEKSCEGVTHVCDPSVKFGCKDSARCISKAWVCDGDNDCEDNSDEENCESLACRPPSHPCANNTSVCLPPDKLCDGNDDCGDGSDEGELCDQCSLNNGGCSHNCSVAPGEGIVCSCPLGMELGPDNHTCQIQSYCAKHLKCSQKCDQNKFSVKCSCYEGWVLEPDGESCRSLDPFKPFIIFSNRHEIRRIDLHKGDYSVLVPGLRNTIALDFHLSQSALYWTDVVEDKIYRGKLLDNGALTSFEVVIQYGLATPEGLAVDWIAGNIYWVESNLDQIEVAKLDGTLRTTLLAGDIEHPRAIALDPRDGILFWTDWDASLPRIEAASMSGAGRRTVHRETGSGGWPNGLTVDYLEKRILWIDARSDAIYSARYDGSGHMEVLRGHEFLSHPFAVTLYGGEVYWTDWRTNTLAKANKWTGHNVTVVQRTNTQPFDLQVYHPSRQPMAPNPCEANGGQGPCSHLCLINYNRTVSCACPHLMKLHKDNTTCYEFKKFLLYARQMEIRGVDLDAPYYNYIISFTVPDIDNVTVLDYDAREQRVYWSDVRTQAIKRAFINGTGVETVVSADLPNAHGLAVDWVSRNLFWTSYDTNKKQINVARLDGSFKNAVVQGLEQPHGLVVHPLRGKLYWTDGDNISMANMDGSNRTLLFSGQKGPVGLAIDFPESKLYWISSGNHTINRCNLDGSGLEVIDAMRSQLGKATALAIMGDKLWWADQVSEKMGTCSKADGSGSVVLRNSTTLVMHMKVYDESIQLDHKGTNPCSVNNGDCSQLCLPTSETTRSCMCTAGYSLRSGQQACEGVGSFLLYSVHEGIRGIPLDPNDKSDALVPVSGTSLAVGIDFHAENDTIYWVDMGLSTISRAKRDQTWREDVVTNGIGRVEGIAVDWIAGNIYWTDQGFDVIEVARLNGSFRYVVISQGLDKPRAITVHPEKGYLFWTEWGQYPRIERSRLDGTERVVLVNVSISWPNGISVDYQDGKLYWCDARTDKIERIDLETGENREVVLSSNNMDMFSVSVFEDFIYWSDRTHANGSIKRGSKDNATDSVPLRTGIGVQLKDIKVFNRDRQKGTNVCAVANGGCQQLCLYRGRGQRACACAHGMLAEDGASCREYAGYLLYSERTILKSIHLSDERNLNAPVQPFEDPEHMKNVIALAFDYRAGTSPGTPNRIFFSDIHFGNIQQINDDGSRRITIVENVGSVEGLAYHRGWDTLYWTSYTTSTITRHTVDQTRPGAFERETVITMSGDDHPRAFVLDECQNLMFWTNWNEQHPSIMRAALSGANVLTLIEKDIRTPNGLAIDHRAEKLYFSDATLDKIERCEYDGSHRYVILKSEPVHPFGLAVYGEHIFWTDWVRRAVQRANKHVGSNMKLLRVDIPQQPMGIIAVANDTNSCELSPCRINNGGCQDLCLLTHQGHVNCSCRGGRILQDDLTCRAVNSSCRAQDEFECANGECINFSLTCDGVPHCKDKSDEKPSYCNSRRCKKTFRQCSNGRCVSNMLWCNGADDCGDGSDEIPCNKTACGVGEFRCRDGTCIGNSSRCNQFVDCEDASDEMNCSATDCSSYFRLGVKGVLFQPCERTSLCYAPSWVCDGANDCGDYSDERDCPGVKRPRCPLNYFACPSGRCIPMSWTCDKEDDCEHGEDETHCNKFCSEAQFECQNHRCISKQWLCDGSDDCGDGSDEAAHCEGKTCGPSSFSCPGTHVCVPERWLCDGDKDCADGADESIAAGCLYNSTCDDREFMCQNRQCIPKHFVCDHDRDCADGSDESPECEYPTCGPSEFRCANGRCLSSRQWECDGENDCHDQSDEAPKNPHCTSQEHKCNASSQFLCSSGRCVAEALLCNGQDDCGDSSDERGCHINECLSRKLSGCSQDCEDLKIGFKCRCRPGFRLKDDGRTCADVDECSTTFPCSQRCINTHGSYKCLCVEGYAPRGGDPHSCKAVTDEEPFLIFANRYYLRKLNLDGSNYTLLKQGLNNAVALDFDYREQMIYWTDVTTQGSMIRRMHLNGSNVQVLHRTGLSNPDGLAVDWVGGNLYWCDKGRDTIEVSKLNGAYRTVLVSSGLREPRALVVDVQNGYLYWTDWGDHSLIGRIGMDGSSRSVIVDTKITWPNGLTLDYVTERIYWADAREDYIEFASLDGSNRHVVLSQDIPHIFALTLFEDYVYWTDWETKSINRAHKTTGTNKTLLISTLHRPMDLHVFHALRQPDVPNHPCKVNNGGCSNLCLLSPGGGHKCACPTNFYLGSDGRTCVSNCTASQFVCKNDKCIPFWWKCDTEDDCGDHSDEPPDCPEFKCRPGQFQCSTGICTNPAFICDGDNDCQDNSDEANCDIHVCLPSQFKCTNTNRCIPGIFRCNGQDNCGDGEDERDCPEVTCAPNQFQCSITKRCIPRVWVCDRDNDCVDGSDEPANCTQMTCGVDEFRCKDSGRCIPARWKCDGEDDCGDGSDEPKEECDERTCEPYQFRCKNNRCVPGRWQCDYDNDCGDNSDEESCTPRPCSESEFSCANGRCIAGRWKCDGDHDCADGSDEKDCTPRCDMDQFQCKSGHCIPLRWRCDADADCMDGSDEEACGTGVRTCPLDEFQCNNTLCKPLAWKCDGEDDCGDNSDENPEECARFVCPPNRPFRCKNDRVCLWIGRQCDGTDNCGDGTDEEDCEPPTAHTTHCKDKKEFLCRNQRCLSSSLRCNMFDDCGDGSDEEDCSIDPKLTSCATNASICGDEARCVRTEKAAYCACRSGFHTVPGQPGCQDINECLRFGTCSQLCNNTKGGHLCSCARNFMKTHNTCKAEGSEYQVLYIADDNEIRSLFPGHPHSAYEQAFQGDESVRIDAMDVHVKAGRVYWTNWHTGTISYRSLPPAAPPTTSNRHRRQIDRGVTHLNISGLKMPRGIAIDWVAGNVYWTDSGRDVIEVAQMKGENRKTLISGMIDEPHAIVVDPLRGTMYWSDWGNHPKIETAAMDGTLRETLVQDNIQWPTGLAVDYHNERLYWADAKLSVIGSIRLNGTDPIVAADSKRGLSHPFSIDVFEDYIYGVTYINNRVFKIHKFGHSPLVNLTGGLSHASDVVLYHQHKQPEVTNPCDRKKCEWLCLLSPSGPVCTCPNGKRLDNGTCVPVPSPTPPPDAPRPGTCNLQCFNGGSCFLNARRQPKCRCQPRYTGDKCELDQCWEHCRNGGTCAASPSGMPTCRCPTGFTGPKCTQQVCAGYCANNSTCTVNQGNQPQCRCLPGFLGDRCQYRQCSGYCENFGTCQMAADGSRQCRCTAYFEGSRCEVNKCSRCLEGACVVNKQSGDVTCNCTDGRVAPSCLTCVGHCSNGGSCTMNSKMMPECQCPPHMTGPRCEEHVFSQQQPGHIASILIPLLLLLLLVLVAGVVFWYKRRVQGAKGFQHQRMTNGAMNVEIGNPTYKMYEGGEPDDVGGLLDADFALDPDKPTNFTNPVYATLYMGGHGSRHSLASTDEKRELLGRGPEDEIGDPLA

Sequence of FGF2 (Homo sapiens) (P09038 143-288): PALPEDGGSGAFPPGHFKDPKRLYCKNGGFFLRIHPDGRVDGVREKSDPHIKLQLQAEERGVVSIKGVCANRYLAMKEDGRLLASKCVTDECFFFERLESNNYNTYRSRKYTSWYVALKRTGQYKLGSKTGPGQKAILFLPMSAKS

Molecule: FGF2 (from UniProt P09038)
Kd [1]: 2.7 nM | Kd [2]: 62 nM

Molecule: FGFR1 (from UniProt P11362)
Kd [3]: 2.7 nM | Kd [4]: 62 nM

The remaining lines, values ahead:

Kd [5]: ~1.06 nM
B1: pro-heparanase-1 (protein)
chain: QDVVDLDFFTQEPLHLVSPSFLSVTIDANLATDPRFLILLGSPKLRTLARGLSPAYLRFGGTKTDFLIFDPKKESTFEERSYWQSQVNQDICKYGSIPPDVEEKLRLEWPYQEQLLLREHYQKKFKNSTYSRSSVDVLYTFANCSGLDLIFGLNALLRTADLQWNSSNAQLLLDYCSSKGYNISWELGNEPNSFLKKADIFINGSQLGEDFIQLHKLLRKSTFKNAKLYGPDVGQPRRKTAKMLKSFLKAGGEVIDSVTWHHYYLNGRTATKEDFLNPDVLDIFISSVQKVFQVVESTRPGKKVWLGETSSAYGGGAPLLSDTFAAGFMWLDKLGLSARMGIEVVMRQVFFGAGNYHLVDENFDPLPDYWLSLLFKKLVGTKVLMASVQGSKRRKLRVYLHCTNTDNPRYKEGDLTLYAINLHNVTKYLRLPYPFSNKQVDKYLLRPLGPHGLLSKSVQLNGLTLKMVDDQTLPPLMEKPLRPGSSLGLPAFSYSFFVIRNAKVAACI

Kd [5]: ~0.05 nM
B2: pro-heparanase-1 (protein)
chain: B1 chain
modifications: complex of LRP with heparan sulphate proteoglycans (HSPG)
